Source: paper PMC4104448

Molecular target: Biotinylated human CI-MPR domains I-XV (residues 41Q-G2293) (human) (UniProt P11717)
Test: SPR; equilibrium binding; about 1,000 RU of biotinylated ligand on a streptavidin-coupled CM5 chip, LIMP-2 as analyte; Biacore T100, 25 °C, 10 mM HEPES pH 7.5, 150 mM NaCl, 0.005% Tween 20; one-site saturation binding model

Biotinylated human CI-MPR domains I-XV (residues 41Q-G2293) (human), sequence (P11717 41-2293): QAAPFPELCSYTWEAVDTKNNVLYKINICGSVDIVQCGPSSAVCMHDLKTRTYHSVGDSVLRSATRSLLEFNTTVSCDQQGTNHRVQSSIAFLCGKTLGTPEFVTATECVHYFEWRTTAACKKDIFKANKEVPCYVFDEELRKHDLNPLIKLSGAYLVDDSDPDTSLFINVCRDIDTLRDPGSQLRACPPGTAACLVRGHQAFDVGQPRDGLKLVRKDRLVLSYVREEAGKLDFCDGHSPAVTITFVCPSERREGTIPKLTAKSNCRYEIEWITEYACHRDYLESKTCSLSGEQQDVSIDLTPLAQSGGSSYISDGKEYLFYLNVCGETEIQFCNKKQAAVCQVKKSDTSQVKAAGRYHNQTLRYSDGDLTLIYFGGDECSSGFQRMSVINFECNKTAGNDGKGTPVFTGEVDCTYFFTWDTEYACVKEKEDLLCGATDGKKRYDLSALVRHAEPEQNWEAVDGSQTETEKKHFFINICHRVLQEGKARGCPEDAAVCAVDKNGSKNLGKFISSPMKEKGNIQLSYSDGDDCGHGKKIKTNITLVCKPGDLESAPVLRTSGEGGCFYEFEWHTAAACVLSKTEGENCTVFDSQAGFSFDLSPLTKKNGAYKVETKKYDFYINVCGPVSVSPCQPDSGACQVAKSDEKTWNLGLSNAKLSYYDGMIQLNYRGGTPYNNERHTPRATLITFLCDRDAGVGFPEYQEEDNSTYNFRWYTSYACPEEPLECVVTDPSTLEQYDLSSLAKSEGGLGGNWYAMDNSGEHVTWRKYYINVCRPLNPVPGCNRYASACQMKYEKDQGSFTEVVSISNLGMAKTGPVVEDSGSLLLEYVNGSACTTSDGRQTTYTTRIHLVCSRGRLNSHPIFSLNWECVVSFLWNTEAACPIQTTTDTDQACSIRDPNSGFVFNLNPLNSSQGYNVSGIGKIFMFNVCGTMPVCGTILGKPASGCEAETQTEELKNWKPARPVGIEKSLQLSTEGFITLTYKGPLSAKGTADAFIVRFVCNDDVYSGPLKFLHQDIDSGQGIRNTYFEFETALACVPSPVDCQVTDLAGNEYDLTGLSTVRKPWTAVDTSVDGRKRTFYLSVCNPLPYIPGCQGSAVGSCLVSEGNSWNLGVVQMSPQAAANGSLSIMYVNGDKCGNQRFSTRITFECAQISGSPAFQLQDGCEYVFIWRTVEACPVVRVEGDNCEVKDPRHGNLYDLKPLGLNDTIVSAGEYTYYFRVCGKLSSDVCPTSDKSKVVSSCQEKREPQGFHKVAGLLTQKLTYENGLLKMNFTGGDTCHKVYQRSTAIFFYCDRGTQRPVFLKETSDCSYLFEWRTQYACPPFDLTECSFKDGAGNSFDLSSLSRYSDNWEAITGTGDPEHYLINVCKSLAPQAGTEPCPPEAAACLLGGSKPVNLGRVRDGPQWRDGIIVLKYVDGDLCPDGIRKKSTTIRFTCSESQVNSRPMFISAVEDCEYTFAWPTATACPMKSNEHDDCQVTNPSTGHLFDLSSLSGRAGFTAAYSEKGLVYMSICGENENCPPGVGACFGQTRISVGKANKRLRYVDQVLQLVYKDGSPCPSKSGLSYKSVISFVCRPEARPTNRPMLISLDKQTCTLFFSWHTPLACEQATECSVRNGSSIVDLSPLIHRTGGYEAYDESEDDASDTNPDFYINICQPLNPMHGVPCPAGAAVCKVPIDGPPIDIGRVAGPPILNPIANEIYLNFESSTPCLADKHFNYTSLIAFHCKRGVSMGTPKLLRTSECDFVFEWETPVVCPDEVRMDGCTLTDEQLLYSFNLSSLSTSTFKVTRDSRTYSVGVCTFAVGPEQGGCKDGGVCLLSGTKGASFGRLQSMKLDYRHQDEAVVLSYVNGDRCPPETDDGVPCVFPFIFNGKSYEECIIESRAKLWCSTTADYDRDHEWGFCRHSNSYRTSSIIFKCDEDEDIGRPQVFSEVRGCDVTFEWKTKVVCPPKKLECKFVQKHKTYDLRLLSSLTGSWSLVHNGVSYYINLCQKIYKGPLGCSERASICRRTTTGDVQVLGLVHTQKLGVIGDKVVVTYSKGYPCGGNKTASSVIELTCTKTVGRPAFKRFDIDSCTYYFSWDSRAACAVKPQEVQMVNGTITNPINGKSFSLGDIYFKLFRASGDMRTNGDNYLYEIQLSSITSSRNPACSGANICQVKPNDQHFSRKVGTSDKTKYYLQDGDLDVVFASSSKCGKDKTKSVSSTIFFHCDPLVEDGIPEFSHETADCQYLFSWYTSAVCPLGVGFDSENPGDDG

Row | Substance | Kd
1 | Human LIMP-2 luminal domain (residues 28-431) produced from HEK293T cells, with full glycosylation (from UniProt Q14108 28-431) (domain or fragment) | 0.97 µM
2 | Human LIMP-2 luminal domain (residues 28-431) produced from HEK293S (GnTI-) cells, with limited glycosylation (from UniProt Q14108 28-431) (domain or fragment) | 2.2 µM
